# Assay results taken from IntAct's records for PubMed 22902367.
# B1: Nectin-1 (Homo sapiens), Q15223 (parent)
# chain: MARMGLAGAAGRWWGLALGLTAFFLPGVHSQVVQVNDSMYGFIGTDVVLHCSFANPLPSVKITQVTWQKSTNGSKQNVAIYNPSMGVSVLAPYRERVEFLRPSFTDGTIRLSRLELEDEGVYICEFATFPTGNRESQLNLTVMAKPTNWIEGTQAVLRAKKGQDDKVLVATCTSANGKPPSVVSWETRLKGEAEYQEIRNPNGTVTVISRYRLVPSREAHQQSLACIVNYHMDRFKESLTLNVQYEPEVTIEGFDGNWYLQRMDVKLTCKADANPPATEYHWTTLNGSLPKGVEAQNRTLFFKGPINYSLAGTYICEATNPIGTRSGQVEVNITEFPYTPSPPEHGRRAGPVPTAIIGGVAGSILLVLIVVGGIVVALRRRRHTFKGDYSTKKHVYGNGYSKAGIPQHHPPMAQNLQYPDDSDDEKKAGPLGGSSYEEEEEEEEGGGGGERKVGGPHPKYDEDAKRPYFTVDEAEARQDGYGDRTLGYQYDPEQLDLAENMVSQNDGSFISKKEWYV
# Variants of: B1
# Settings: with NECTIN3, Q9NQS3-1
# NECTIN3, Q9NQS3-1, sequence (Q9NQS3 whole entry, looked up): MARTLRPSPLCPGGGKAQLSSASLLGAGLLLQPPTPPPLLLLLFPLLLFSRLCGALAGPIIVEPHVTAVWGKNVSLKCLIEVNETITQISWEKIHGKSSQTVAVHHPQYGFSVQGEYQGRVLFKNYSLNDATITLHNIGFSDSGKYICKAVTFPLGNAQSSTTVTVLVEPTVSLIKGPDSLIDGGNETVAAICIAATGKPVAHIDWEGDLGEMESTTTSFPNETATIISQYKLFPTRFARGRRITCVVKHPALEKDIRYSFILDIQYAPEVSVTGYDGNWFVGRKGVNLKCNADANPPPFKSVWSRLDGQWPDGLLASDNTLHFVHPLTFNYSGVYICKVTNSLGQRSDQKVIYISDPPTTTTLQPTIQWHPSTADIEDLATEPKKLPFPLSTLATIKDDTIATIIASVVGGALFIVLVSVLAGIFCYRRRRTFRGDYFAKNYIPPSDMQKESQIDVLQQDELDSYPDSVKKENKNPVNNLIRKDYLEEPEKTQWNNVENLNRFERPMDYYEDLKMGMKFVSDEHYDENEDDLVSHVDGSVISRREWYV
row,Variant,effect of a mutation on the interaction
1,F129D,disrupting interaction strength

# Variants of: B1
# Settings: with nect4_human NECTIN4, Q96NY8
# nect4_human NECTIN4, Q96NY8, sequence (Q96NY8 whole entry): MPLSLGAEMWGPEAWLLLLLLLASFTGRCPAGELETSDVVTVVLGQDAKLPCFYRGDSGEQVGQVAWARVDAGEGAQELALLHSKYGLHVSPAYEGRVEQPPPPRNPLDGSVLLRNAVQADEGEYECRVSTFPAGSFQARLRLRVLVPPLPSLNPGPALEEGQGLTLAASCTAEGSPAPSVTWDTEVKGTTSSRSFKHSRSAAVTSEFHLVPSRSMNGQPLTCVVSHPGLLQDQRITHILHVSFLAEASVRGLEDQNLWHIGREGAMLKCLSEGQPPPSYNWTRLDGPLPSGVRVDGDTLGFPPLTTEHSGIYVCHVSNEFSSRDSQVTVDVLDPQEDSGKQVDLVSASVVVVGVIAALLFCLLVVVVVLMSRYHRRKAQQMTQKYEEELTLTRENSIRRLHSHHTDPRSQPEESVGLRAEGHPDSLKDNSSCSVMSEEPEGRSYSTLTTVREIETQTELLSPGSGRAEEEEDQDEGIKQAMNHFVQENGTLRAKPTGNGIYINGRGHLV
row,Variant,effect of a mutation on the interaction
1,F129D,disrupting interaction strength
